Assay results reported in the supplement of paper PMC10567573.

B1: WDFY1 (parent)
chain: FWNIKQMWDTKTLGLRQHHCRKCG
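Note: lentivirally expressed fusions sorted by FACS into six bins by GFP to DsRed ratio, PSI derived from sequencing read proportions per bin multiplied by bin number.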

Variants of: B1
Experiment: protein stability index of a GFP-peptide fusion (GPS, HEK-293T) (PSI 1-6); higher = more stable
Conditions: c terminus: a fixed tail appended
With FWNIKQMWDTGTLGLRQHHCRKCG [K11G] the protein stability index was 2.08. In the case of FWNIKQMWDTNTLGLRQHHCRKCG [K11N], the protein stability index is reported as 2.27. FWNIKQMWDTPTLGLRQHHCRKCG [K11P] showed a protein stability index of 2.2. Work on FWNIKQMWDTITLGLRQHHCRKCG [K11I] yielded a protein stability index of 1.42. In the case of FWNIKQMWDTFTLGLRQHHCRKCG [K11F], the protein stability index is reported as 1.92. With FWNIKQMWDTRTLGLRQHHCRKCG [K11R] the protein stability index was 1.27. FWNIKQMWDTTTLGLRQHHCRKCG [K11T] showed a protein stability index of 2.21. FWNIKQMWDTDTLGLRQHHCRKCG [K11D] showed a protein stability index of 2.37. Work on FWNIKQMWDTSTLGLRQHHCRKCG [K11S] yielded a protein stability index of 2.57. FWNIKQMWDTVTLGLRQHHCRKCG [K11V] gave a protein stability index of 1.97. With FWNIKQMWDTYTLGLRQHHCRKCG [K11Y] the protein stability index was 1.77. In the case of FWNIKQMWDTCTLGLRQHHCRKCG [K11C], the protein stability index is reported as 1.87. FWNIKQMWDTLTLGLRQHHCRKCG [K11L] gave a protein stability index of 1.54. Work on FWNIKQMWDTETLGLRQHHCRKCG [K11E] yielded a protein stability index of 3.03. In the case of FWNIKQMWDTATLGLRQHHCRKCG [K11A], the protein stability index is reported as 2.14. With FWNIKQMWDTWTLGLRQHHCRKCG [K11W] the protein stability index was 2.44. Work on FWNIKQMWDTQTLGLRQHHCRKCG [K11Q] yielded a protein stability index of 1.77. FWNIKQMWDTHTLGLRQHHCRKCG [K11H] showed a protein stability index of 1.8. Work on FWNIKQMWDTMTLGLRQHHCRKCG [K11M] yielded a protein stability index of 1.94. Variant FWNIKQMWDTKTLGLLQHHCRKCG [R16L] has a protein stability index of 1.79. FWNIKQMWDTKTLGLTQHHCRKCG [R16T] gave a protein stability index of 2.55. Work on FWNIKQMWDTKTLGLQQHHCRKCG [R16Q] yielded a protein stability index of 1.94. Variant FWNIKQMWDTKTLGLSQHHCRKCG [R16S] has a protein stability index of 2.21. Variant FWNIKQMWDTKTLGLYQHHCRKCG [R16Y] has a protein stability index of 1.6. In the case of FWNIKQMWDTKTLGLHQHHCRKCG [R16H], the protein stability index is reported as 2.5. In the case of FWNIKQMWDTKTLGLIQHHCRKCG [R16I], the protein stability index is reported as 1.43. With FWNIKQMWDTKTLGLGQHHCRKCG [R16G] the protein stability index was 1.64. For FWNIKQMWDTKTLGLCQHHCRKCG [R16C], the protein stability index was 1.59. For FWNIKQMWDTKTLGLAQHHCRKCG [R16A], the protein stability index was 1.45. With FWNIKQMWDTKTLGLEQHHCRKCG [R16E] the protein stability index was 2.3. FWNIKQMWDTKTLGLDQHHCRKCG [R16D] gave a protein stability index of 2.84. FWNIKQMWDTKTLGLPQHHCRKCG [R16P] showed a protein stability index of 1.8. For FWNIKQMWDTKTLGLWQHHCRKCG [R16W], the protein stability index was 1.14. In the case of FWNIKQMWDTKTLGLVQHHCRKCG [R16V], the protein stability index is reported as 1.88. FWNIKQMWDTKTLGLMQHHCRKCG [R16M] showed a protein stability index of 1.65. For FWNIKQMWDTKTLGLKQHHCRKCG [R16K], the protein stability index was 2.89. FWNIKQMWDTKTLGLNQHHCRKCG [R16N] showed a protein stability index of 2.1. Variant FWNIKQMWDTKTDGLRQHHCRKCG [L13D] has a protein stability index of 1.7. FWNIKQMWDTKTSGLRQHHCRKCG [L13S] gave a protein stability index of 2.37. Work on FWNIKQMWDTKTPGLRQHHCRKCG [L13P] yielded a protein stability index of 2.22. For FWNIKQMWDTKTEGLRQHHCRKCG [L13E], the protein stability index was 2.56. With FWNIKQMWDTKTFGLRQHHCRKCG [L13F] the protein stability index was 2.2. For FWNIKQMWDTKTVGLRQHHCRKCG [L13V], the protein stability index was 2.15. In the case of FWNIKQMWDTKTKGLRQHHCRKCG [L13K], the protein stability index is reported as 2.08. FWNIKQMWDTKTRGLRQHHCRKCG [L13R] gave a protein stability index of 2.29. For FWNIKQMWDTKTGGLRQHHCRKCG [L13G], the protein stability index was 2.01. Work on FWNIKQMWDTKTHGLRQHHCRKCG [L13H] yielded a protein stability index of 2.22. In the case of FWNIKQMWDTKTMGLRQHHCRKCG [L13M], the protein stability index is reported as 2. FWNIKQMWDTKTWGLRQHHCRKCG [L13W] showed a protein stability index of 2.01. For FWNIKQMWDTKTYGLRQHHCRKCG [L13Y], the protein stability index was 2.67. For FWNIKQMWDTKTCGLRQHHCRKCG [L13C], the protein stability index was 2.57. FWNIKQMWDTKTAGLRQHHCRKCG [L13A] gave a protein stability index of 2.01. With FWNIKQMWDTKTIGLRQHHCRKCG [L13I] the protein stability index was 2.26. Work on FWNIKQMWDTKTTGLRQHHCRKCG [L13T] yielded a protein stability index of 1.95. Variant FWNIKQMWDTKTNGLRQHHCRKCG [L13N] has a protein stability index of 1.96. FWNIKQMWDTKTQGLRQHHCRKCG [L13Q] showed a protein stability index of 2.02. With FWNIKQMCDTKTLGLRQHHCRKCG [W8C] the protein stability index was 2.54. FWNIKQMDDTKTLGLRQHHCRKCG [W8D] gave a protein stability index of 3.27. Work on FWNIKQMMDTKTLGLRQHHCRKCG [W8M] yielded a protein stability index of 2.78. FWNIKQMGDTKTLGLRQHHCRKCG [W8G] showed a protein stability index of 2.81. With FWNIKQMFDTKTLGLRQHHCRKCG [W8F] the protein stability index was 1.67. FWNIKQMTDTKTLGLRQHHCRKCG [W8T] showed a protein stability index of 2.52. In the case of FWNIKQMPDTKTLGLRQHHCRKCG [W8P], the protein stability index is reported as 2.73. FWNIKQMIDTKTLGLRQHHCRKCG [W8I] gave a protein stability index of 1.75. Variant FWNIKQMSDTKTLGLRQHHCRKCG [W8S] has a protein stability index of 3.12. With FWNIKQMEDTKTLGLRQHHCRKCG [W8E] the protein stability index was 2.44. Work on FWNIKQMQDTKTLGLRQHHCRKCG [W8Q] yielded a protein stability index of 2.59. FWNIKQMHDTKTLGLRQHHCRKCG [W8H] showed a protein stability index of 2.24. For FWNIKQMLDTKTLGLRQHHCRKCG [W8L], the protein stability index was 1.76. For FWNIKQMNDTKTLGLRQHHCRKCG [W8N], the protein stability index was 2.25. Work on FWNIKQMVDTKTLGLRQHHCRKCG [W8V] yielded a protein stability index of 2.15. In the case of FWNIKQMRDTKTLGLRQHHCRKCG [W8R], the protein stability index is reported as 1.42. With FWNIKQMKDTKTLGLRQHHCRKCG [W8K] the protein stability index was 2.18. With FWNIKQMYDTKTLGLRQHHCRKCG [W8Y] the protein stability index was 2.6. FWNIKQMADTKTLGLRQHHCRKCG [W8A] showed a protein stability index of 2.57. Work on FWNIKQMWDMKTLGLRQHHCRKCG [T10M] yielded a protein stability index of 2.16. FWNIKQMWDDKTLGLRQHHCRKCG [T10D] gave a protein stability index of 2.56. With FWNIKQMWDCKTLGLRQHHCRKCG [T10C] the protein stability index was 2.11. FWNIKQMWDGKTLGLRQHHCRKCG [T10G] showed a protein stability index of 1.89. In the case of FWNIKQMWDFKTLGLRQHHCRKCG [T10F], the protein stability index is reported as 2.52. Work on FWNIKQMWDWKTLGLRQHHCRKCG [T10W] yielded a protein stability index of 2.48. FWNIKQMWDVKTLGLRQHHCRKCG [T10V] gave a protein stability index of 2.04. Variant FWNIKQMWDLKTLGLRQHHCRKCG [T10L] has a protein stability index of 2.23. Variant FWNIKQMWDPKTLGLRQHHCRKCG [T10P] has a protein stability index of 2.28. FWNIKQMWDYKTLGLRQHHCRKCG [T10Y] gave a protein stability index of 1.41. In the case of FWNIKQMWDQKTLGLRQHHCRKCG [T10Q], the protein stability index is reported as 1.91. In the case of FWNIKQMWDSKTLGLRQHHCRKCG [T10S], the protein stability index is reported as 2.18. For FWNIKQMWDEKTLGLRQHHCRKCG [T10E], the protein stability index was 2.39. For FWNIKQMWDAKTLGLRQHHCRKCG [T10A], the protein stability index was 1.48. With FWNIKQMWDIKTLGLRQHHCRKCG [T10I] the protein stability index was 2.31. Variant FWNIKQMWDRKTLGLRQHHCRKCG [T10R] has a protein stability index of 2.06. With FWNIKQMWDHKTLGLRQHHCRKCG [T10H] the protein stability index was 2.13. FWNIKQMWDNKTLGLRQHHCRKCG [T10N] showed a protein stability index of 2.04. Work on FWNIKQMWDKKTLGLRQHHCRKCG [T10K] yielded a protein stability index of 3.11.
